This note sets out measurements from patent US20060234282A1 (NATIONAL RESEARCH COUNCIL OF CANADA, published 2006).

The experiment deals with T1, rat galanin receptor-2 (GAL-R2) (rat, UniProt O08726 1-372).
T1 construct: Full 372 amino acid open reading frame expressed from pCDNA3/GALR-2 in HEK293 cells; cAMP assays used whole cells; also called rat GAL-R2; RGALR2.PRO
T1 sequence: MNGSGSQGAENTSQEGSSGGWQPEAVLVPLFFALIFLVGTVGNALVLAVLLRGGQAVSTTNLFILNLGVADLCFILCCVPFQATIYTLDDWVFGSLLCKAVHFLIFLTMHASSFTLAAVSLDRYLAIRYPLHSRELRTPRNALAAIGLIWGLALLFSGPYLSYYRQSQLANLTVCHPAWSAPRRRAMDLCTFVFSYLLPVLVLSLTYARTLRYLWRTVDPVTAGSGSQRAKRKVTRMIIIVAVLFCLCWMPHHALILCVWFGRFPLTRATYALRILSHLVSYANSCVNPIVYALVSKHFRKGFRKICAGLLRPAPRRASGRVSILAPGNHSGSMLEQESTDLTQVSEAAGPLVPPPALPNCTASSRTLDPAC
The experiment can be described thus: displacement of ^125I-galanin, membranes of HEK293 cells expressing rat GAL-R2. On the procedure: Binding reactions proceeded for 20 min at room temperature and were stopped by filtration through Unifilters-96, GF/B filters (Canberra Packard), using the 96-well Filtermate 196 filtration system from Canberra Packard. Filters were washed 5 times with 0.5 ml of ice cold 20 mM HEPES pH 7.5. The filters were dried at 55° C. for one hour and then 100 μl of μScint-20 (Canberra Packard) was added per well. Filters were counted with the Topcount microplate counter from Canberra Packard.

In turn, M40 (peptide) gave a Ki of 8.3 nM. For the molecule RPKPQQFFGLM (peptide, UniProt P20366 58-68, looked up, Galanin-unrelated control ligand) [substance P], the binding result was “no binding”.

HSDAVFTDNYTRLRKQMAVKKYLNSILN (peptide, UniProt P01282 125-152, looked up, Galanin-unrelated control ligand) [vasoactive intestinal polypeptide]: the binding result is reported as “no binding”.
